According to the supplement of paper PMC11136658:

Test system: peptide library, one residue held at a place counted from the Y acceptor
Assay: relative phosphorylation of the sub-library (ratio to the mean residue at this position); higher = residue favoured
Summary of the method: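 Every value reflects phosphorylation relative to the mean randomized residue. The sum of the 18 randomized residues, or 16 in the Ser/Thr-free library, served to normalize intensities at each position, which were then multiplied by that number. Intensities came from phosphorimaging with ImageQuant of biotinylated Tyr-centred peptides captured on streptavidin membranes after 90 min with purified recombinant kinases and 50 μM ATP plus γ-32P-ATP.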

MET, construct: aa956-end, human, sequence (P08581 956-1390, looked up): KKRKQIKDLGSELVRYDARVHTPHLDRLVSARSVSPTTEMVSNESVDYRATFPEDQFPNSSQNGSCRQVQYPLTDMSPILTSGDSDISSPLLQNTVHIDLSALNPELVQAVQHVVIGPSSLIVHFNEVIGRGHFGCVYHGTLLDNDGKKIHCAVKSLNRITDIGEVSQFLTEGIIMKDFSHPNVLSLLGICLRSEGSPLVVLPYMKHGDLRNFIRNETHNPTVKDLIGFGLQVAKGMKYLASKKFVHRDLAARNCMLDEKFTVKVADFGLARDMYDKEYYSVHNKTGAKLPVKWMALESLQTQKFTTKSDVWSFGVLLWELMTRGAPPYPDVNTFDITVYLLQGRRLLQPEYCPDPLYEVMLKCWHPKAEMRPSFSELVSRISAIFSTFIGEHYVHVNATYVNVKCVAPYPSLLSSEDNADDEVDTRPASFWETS

MET, construct: aa956-end, human (from UniProt P08581)
relative phosphorylation
Conditions	at +1	at +2	at +3	at +4	at +5	at -1	at -2	at -3	at -4	at -5
A fixed	1.33	1.03	0.632	0.901	1.11	0.739	1.1	0.977	1.04	1.05
D fixed	0.433	0.808	0.32	0.658	0.938	1.86	1.52	1.64	1.4	1.27
E fixed	0.821	0.83	0.252	0.581	0.861	1.37	1.45	1.79	1.61	1.09
F fixed	1.25	1.07	1.28	1.3	1.05	0.688	0.534	0.663	0.914	0.869
G fixed	0.609	0.616	0.564	1.02	0.906	0.478	1.21	1.22	1.21	1.11
H fixed	1.34	0.874	0.869	0.998	0.879	1.24	0.819	0.911	0.916	1
I fixed	1.4	0.913	2.4	0.797	0.796	1.7	0.711	0.529	0.737	0.721
K fixed	0.531	0.705	0.431	0.87	0.978	0.496	0.738	0.866	0.86	1.19
L fixed	0.758	0.935	1.9	0.771	1.02	1.06	0.704	0.558	0.728	0.724
M fixed	0.84	0.833	1.43	0.883	0.965	0.774	0.583	0.596	0.746	0.733
N fixed	0.574	1.29	0.537	0.875	1.02	1.26	1.16	1.37	0.984	0.995
P fixed	0.442	0.961	1.36	1.09	1.21	0.659	1.59	1.22	1.18	1.16
Q fixed	1.21	1.03	0.578	0.994	0.932	1.12	1.17	1.1	1.07	0.976
R fixed	0.887	1.07	0.554	1.06	1.05	0.597	0.88	0.918	0.995	1.18
S fixed	1.11	1.25	0.616	0.957	1.2	0.704	1.34	1.27	0.948	1
T fixed	1.26	1.18	0.723	0.899	1.02	1.11	0.99	0.977	0.767	0.893
V fixed	1.99	1.07	1.72	0.851	0.867	1.21	0.868	0.605	0.711	0.735
W fixed	1.22	1.54	1.84	2.49	1.2	0.931	0.629	0.784	1.19	1.31
pThr fixed	1.16	1.4	0.271	0.399	0.597	2.21	1.93	1.77	1.38	1.32
pTyr fixed	3.19	2.63	0.524	0.871	0.771	4.16	1.47	1.82	2.14	1.64
